Laboratory results as given in the RNAGym collection of RNA variant scans (doi:10.7554/elife.80360).

B1: CPEB3 Ribozyme (parent)
chain: GGGGGCCACAGCAGAAGCGUUCACGUCGCGGCCCCUGUCAGAUUCUGGUGAAUCUGCGAAUUCUGCUGU

Variants of: B1
Experiment: self-cleavage, relative activity (ratio to wild type); higher = more cleavage; co-transcriptional

Variant | self-cleavage
A13G C29G | 0.126
A13G C29A | 0.42
A13G A59C | 0.522
A13G A59G | 0.946
A13G A59U | 0.57
A13G G37C | 0.109
A13G G37U | 0.184
A13G G37A | 0.172
A13G G14A | 0.276
A13G G14U | 0.146
A13G G14C | 0.255
A13G C45U | 0.917
A13G C45A | 0.889
A13C G56C | 0.367
A13C G56U | 0.51
A13C G56A | 0.625
A13G C33G | 0.638
A13C U21G | 0.135
A13C U21A | 0.772
A13C U21C | 0.496
A13C C66G | 0.862
A13C C66U | 0.465
A13C C66A | 0.48
A13C G58C | 0.862

Variant | self-cleavage
A13C G58U | 0.933
A13C G58A | 0.754
A13G C18A | 0.0625
A13G C18G | 0.169
A13G G65U | 0.561
A13G C66G | 0.489
A13C G30C | 0.451
A13C G30U | 0.281
A13C G41C | 0.214
A13C G41U | 0.349
A13G C35G | 0.446
A13C U26C | 0.692
A13C U26G | 0.113
A13C U26A | 0.615
A13C U20C | 0.128
A13C U20A | 0.149
A13C C54U | 0.773
A13C C54A | 0.414
A13C C54G | 0.45
A13C U46C | 0.761
A13G U53A | 0.87
A13G G68A | 1.01
A13C U36C | 0.62
A13G G31U | 0.555

Variant | self-cleavage
A13G G31A | 0.775
A13C G47C | 0.928
A13C G47U | 0.959
A13C G17C | 0.122
A13C G17A | 0.0886
A13C G68C | 0.917
A13C G68A | 0.921
A13C C57A | 0.276
A13G C54G | 0.772
A13G C54A | 0.642
A13G A23C | 0.781
A13G U38G | 0.149
A13G U38C | 0.938
A13G U38A | 0.898
A13G G19U | 0.0922
A13G G19A | 0.155
A13G A40U | 0.455
A13G A40G | 0.831
A13C U44C | 0.51
A13C U44A | 0.7
A13C U44G | 0.802
A13G A51C | 0.874
A13G C39G | 0.758
A13G C39U | 0.8

Variant | self-cleavage
A13C G50U | 0.909
A13C G50C | 0.787
A13C C63G | 0.366
A13C C63A | 0.467
A13C C63U | 0.732
A13G A52C | 0.827
A13G A52G | 1.02
A13G U44G | 0.826
A13G G47U | 1.06
A13G G47A | 0.994
A13G C57G | 0.36
A13G C57U | 0.358
A13C G14C | 0.228
A13C G14A | 0.251
A13C G14U | 0.22
A13G C63A | 0.26
A13G C63U | 0.842
A13G C63G | 0.504
A13G A42U | 0.74
A13G C22G | 0.199
A13C C39U | 0.555
A13G G25C | 0.135
A13G G25A | 0.186
A13G G25U | 0.118

Variant | self-cleavage
A13G U43C | 0.785
A13G U43G | 0.539
A13G A60G | 0.66
A13G A60U | 0.282
A13G A60C | 0.268
A13G G30A | 0.856
A13G G30C | 0.711
A13G C32A | 0.773
A13G C32U | 0.916
A13G C32G | 0.318
A13G C34A | 0.797
A13G C34G | 0.293
A13G C34U | 1.02
A13C U43A | 0.514
A13C U43G | 0.32
A13C U49A | 0.922
A13C U49C | 0.842
A13C U49G | 0.933
A13C G19U | 0.138
A13C U67G | 0.824
A13G U26C | 0.78
A13G U26G | 0.935
A13G G56A | 0.934
A13G G56C | 0.421

Variant | self-cleavage
A13G G56U | 0.742
A13G U46A | 1.02
A13G U46G | 0.979
A13C G31A | 0.654
A13C G31U | 0.508
A13C U69G | 0.96
A13G U36A | 0.222
A13G U36C | 0.816
A13G U49A | 0.95
A13C U61C | 0.281
A13G G50C | 0.881
A13G G50A | 0.896
A13G G50U | 0.973
A13C G28U | 0.116
A13C G28C | 0.149
A13C G28A | 0.108
A13C U53A | 0.579
A13G G48U | 0.914
A13G G48A | 0.968
A13G U20G | 0.0546
A13C G25C | 0.0875
A13C G65C | 0.278
A13C G65A | 0.431
A13C U64A | 0.948

Variant | self-cleavage
A13C U64G | 0.922
A13G G41A | 0.448
A13G A15C | 0.196
A13G A15G | 0.82
A13G C27U | 0.168
A13C G37A | 0.14
A13C G37U | 0.225
A13C U55C | 0.439
A13G U21C | 0.74
A13G U21G | 0.355
A13G U21A | 0.966
A13G C24U | 0.712
A13G C24A | 0.54
A13C C45A | 0.761
A13C C45G | 0.835
A13G G17A | 0.0885
A13G G17U | 0.214
A13G G58A | 0.902
A13G G58U | 1.01
A13G G58C | 0.878
A13G G28C | 0.18
A13G G28U | 0.15
A13C U62G | 0.355
